The RNAGym collection of RNA variant scans (doi:10.1073/pnas.2313332121)

B1: TPR t1 (parent)
chain: GACCAAUCUGCCCUCAGAGCUCGAGAACAUCUUCGGAUGCAGAGGAGGCAGGCUUCGGUGGCGCGAUAGCGCCAACGUCCUCAACCUCCAAUGCAUCCCACCACAUGAUGAUGCCUGAAGAGCCUUGGUUUUUUG

Variants of: B1
Test: polymerase ribozyme fitness, log enrichment relative to wild type (log ratio); higher = more active; in vitro selection for triplet polymerase activity
Outline: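 Fitness is a logarithmic measure of how a genotype enriched relative to the wild type, with replicate averages weighted by inverse variance. The logarithm uses base 2, and enrichment came from Illumina sequencing of input and output libraries. Those libraries were PCR-built, transcribed mutants of each subunit of a heterodimeric triplet polymerase ribozyme, passed through one triplicate in vitro selection round that included frozen incubation at −7 °C, gel excision of extended constructs and streptavidin-bead capture. Genotypes were kept only if they had ≥10 input reads and ≥1 read per output.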

Row | Variant | polymerase ribozyme fitness (log ratio)
1 | GACCAAUCUGCCCUCAGAGCUCGAGAACAUCUUCGGAUGCAGAGGAGGCAGGCUUCGGUGGCCCGAUAGCGCCAACGUCCUCAACCUCCAAUGCAUCCCACCACAUGAUGAUGCCUGAAGAGCCUUGGAUUUUUG [G63C U129A] | -2.09
2 | GACCAAUCUGCCCUCAGAGCUCGAGAACAUCUUCGGAUGCAGAGGAGGCAGGCUUCGGUGGCCCGAUAGCGCCAACGUCCUCAACCUCCAAUGCAUCCCACCACAUGAUGAUGCCUGAAGAGCCUUGGCUUUUUG [G63C U129C] | -2
3 | GACCAAUCUGCCCUCAGAGCUCGAGAACAUCUUCGGAUGCAGAGGAGGCAGGCUUCGGUGGCCCGAUAGCGCCAACGUCCUCAACCUCCAAUGCAUCCCACCACAUGAUGAUGCCUGAAGAGCCUUGGGUUUUUG [G63C U129G] | -1.93
4 | GACCAAUCUGCCCUCAGAGCUCGAGAACAUCUUCGGAUGCAGAGGAGGCAGGCUUCGGUGGCUCGAUAGAGCCAACGUCCUCAACCUCCAAUGCAUCCCACCACAUGAUGAUGCCAGAAGAGCCUUGGUUUUUUG [G63U C70A U116A] | -3.62
5 | GACCAAUCUGCCCUCAGAGCUCGAGAACAUCUUCGGAUGCAGAGGAGGCAGGCUUCGGUGGCCCGAUAGCGCCAACGCCCUCAACCUCCAAUGCAUCCCACCACAUGAUGAUGCCUGAAGAGCCUUGGUUUUUUG [G63C U78C] | -1.55
6 | GACCAAUCUGCCCUCAGAGCUCGAGAACAUCUUCGGAUGCAGAGGAGGCAGGCUUCGGUGGCUCGAUAGUGCCAACGUCCUCAACCUCCAAUGCAUCCCACCACAUGAUGAUGCCUGAAGAGCCUUGGAUUUUUG [G63U C70U U129A] | -1.48
7 | GACCAAUCUGCCCUCAGAGCUCGAGAACAUCUUCGGAUGCAGAGGAGGCAGGCUUCGGUGGCCCGAUAGCGCCAACGUCCUCAACCUCCAAUGCAUCCCACCACAUGAUGAUGCCUGAAGAGCCCUGGUUUUUUG [G63C U125C] | -3.57
8 | GACCAAUCUGCCCUCAGAGCUCGAGAACAUCUUCGGAUGCAGAGGAGGCAGGCUUCGGUGGCUCGAUAGCGCCAACGUCCUCAACCUCCAAUGCUUCCCACCACAUGAUGAUGCCUGAAGAGCUUUGGUUUUUUA [G63U A95U C124U G135A] | -0.147
9 | GACCAAUCUGCCCUCAGAGCUCGAGAACAUCUUCGGAUGCAGAGGAGGCAGGCUUCGGUGGCUAGAUAGCGCCAACGUCCUCAACCUCCAAUGCAUCCCACCACAUGAUGAUGCCUGAAGAGCCUUGGUUUUUUG [G63U C64A] | -6.48
10 | GACCAAUCUGCCCUCAGAGCUCGAGAACAUCUUCGGAUGCAGAGGAGGCAGGCUUCGGUGGCUGGAUAGCGCCAACGUCCUCAACCUCCAAUGCAUCCCACCACAUGAUGAUGCCUGAAGAGCCUUGGUUUUUUG [G63U C64G] | -4.92
11 | GACCAAUCUGCCCUCAGAGCUCGAGAACAUCUUCGGAUGCAGAGGAGGCAGGCUUCGGUGGCUUGAUAGCGCCAACGUCCUCAACCUCCAAUGCAUCCCACCACAUGAUGAUGCCUGAAGAGCCUUGGUUUUUUG [G63U C64U] | -6.21
12 | GACCAAUCUGCCCUCAGAGCUCGAGAACAUCUUCGGAUGCAGAGGAGGCAGGCUUCGGUGGCCCGAUAGCGCCAACGUCCUCAACCUCCAAUGCAUCCCACCACAUGACGAUGCCUGAAGAGCCUUGGUUUUUUG [G63C U109C] | -4.03
13 | GACCAAUCUGCCCUCAGAGCUCGAGAACAUCUUCGGAUGCAGAGGAGGCAGGCUUCGGUGGCCCGAUAGCGCCAACGUCCUCAACCUCCAAUGCAUCCCACCACAUGAGGAUGCCUGAAGAGCCUUGGUUUUUUG [G63C U109G] | -3.42
14 | GACCAAUCUGCCCUCAGAGCUCGAGAACAUCUUCGGAUGCAGAGGAGGCAGGCUUCGGUGGCUCGAUAGCGCCAACGUCCUCAGCCUCCAAUGCAUCCCACCACAUGAUGAUGCCUGAAGAGCCUUGGUUUUUUG [G63U A84G] | -2.18
15 | GACCAAUCUGCCCUCAGAGCUCGAGAACAUCUUCGGAUGCAGAGGAGGCAGGCUUCGGUGGCUCGAUAGCGCCAACGUCCUCAACCUCCAAUGCAUCCCCCCACAUGAUGAUGCCUGAAGAGCCUUGGUUUUUUG [G63U A100C] | -2.79
16 | GACCAAUCUGCCCUCAGAGCUCGAGAACAUCUUCGGAUGCAGAGGAGGCAGGCUUCGGUGGCUCGAUAGCGACAACGUCCUCAACCUCCAAUGCAUCCCACCACAUGAUGAUGCCUGAAGAGCCUUGGUUUUUUG [G63U C72A] | -4.54
17 | GACCAAUCUGCCCUCAGAGCUCGAGAACAUCUUCGGAUGCAGAGGAGGCAGGCUUCGGUGGCUCGAUAGCGGCAACGUCCUCAACCUCCAAUGCAUCCCACCACAUGAUGAUGCCUGAAGAGCCUUGGUUUUUUG [G63U C72G] | -3.89
18 | GACCAAUCUGCCCUCAGAGCUCGAGAACAUCUUCGGAUGCAGAGGAGGCAGGCUUCGGUGGCUCGAUAGCGCAAACGUCCUCAACCUCCAAUGCAUCCCACCACAUGAUGAUGCCUGAAGAGCCUUGGUUUUUUG [G63U C73A] | -2.51
19 | GACCAAUCUGCCCUCAGAGCUCGAGAACAUCUUCGGAUGCAGAGGAGGCAGGCUUCGGUGGCUCGAUAGCGCCAACGUCCUCGAACUCCAAUGCAUCCCACCACAUGAUGAUGCCUGAAGAGCCUUGGAUUUUUG [G63U A83G C85A U129A] | -2.64
20 | GACCAAUCUGCCCUCAGAGCUCGAGAACAUCUUCGGAUGCAGAGGAGGCAGGCUUCGGUGGCCCGAUAGCGCCAACGUCCUCAACCUCCAAUGCAUCCCACCACAUGAUGAUGCCGGAAGAGCCUUGGUUUUUUG [G63C U116G] | -2.02
21 | GACCAAUCUGCCCUCAGAGCUCGAGAACAUCUUCGGAUGCAGAGGAGGCAGGCUUCGGUGGCCCGAUAGCGCCAACGUCCUCAACCGCCAAUGCAUCCCACCACAUGAUGAUGCCUGAAGAGCCUUGGUUUUUUG [G63C U87G] | -0.832
